Assay results: a protein production outcome set (Wang et al. 2014)

Experiment: label from the status in PepcDB records
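Also: failed if final PepcDB status was selected cloned or expressed and not failed if soluble or beyond.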

Question: For “MTIPKLSPSPESYPESLTFAELGLNAALRKALPTRLKHPTRVQQLAIPAILAGRDLLALSQTGSGKTFAFGLPLLQILWQQIAVQTTAKSVPAAKPLALVLVPTRELALQVSEALHALASQLSTSAPLNIQLLCGGVALEQQLADLSAKPQLVVATPGRLLDLCTQSHISLDAIKHLVLDEADRLLEMGFWPDMQKLMAMMPKRKQTLLFSATLPEALDSLAGKLLTNDPLKVEASTRNAVVGEIEEQLYLVNKGSKAQALIALLKQYQWPQVLVFISARDDADAIAKRLVKAGINAAALHGEKDQTVRSQTLADFKADRIQVLVATDLMARGIHVDALPVVINLDLPTSAPVYVHRIGRTARAGAKGLAISLVCHGEMPNLTAIRNLTARALPLVFLADFPVTDKPSEKIIDGAENKVIPKRPPRDKQANRRSINKHSVKAFKGKR”, which protein production is on record?
Answer: Its protein production is “failed”.

Question: Which protein production does the source give for “MTISNKTLTAAAAGLAAVLAVLLVPALAGQSAHTGHTMPAHTPPAQTAPAAQKAGAQALPVTVQGATVAAVPPSIRDTAAYMTLTNKSDQPIKLVGAATPLATSPMLMTTTHSGGMAGMKMVPWLTIPARGTLTLQRDGDHVMLMGLKRPLKVGETVNITLKATDGRTLNVAATVKKN” here?
Answer: Its protein production is “not failed”.

Question: For “MTISQNRNGDDVAVHKFGLFVAKHRKLVLAIAILLLIPSIYGFVTTKVNYDILTYLPKDLESVKGQDILDKEFKQAALSMLIVKGDMNISNIQKLKSKISQVDGVEKVIWIDDFLDPTIPKEMLPDVLKNTFYSKDSTLLLIQFKNSASSLETQNAISKIRKIATAQCFLSGMSAIIKDTRDLSDRETPLYVLVAVVFIFILLLLTMESPIVPILFLTSIGMAIIYNLGTNKFLGEISYITKSLAAVLQLGVTMDFSIFLMHRYDEERKRFDSKEEAMAEAISKTLVAILSSAATAIAGFLALCVMRLRIGADIGIVMAKGVFLGVIGTVTILPALILTFDRAIHKFRLKNILPTFSKTAEFATKYHVVLFVVFLLAFIPAIYGRVNIKEYYNLIDSLPKTIKSVQATDLLKKEYNMTTTHMVLVDRSVPKYQIKNMCEEIKRVKGVEKVLAFDDILGPAIPDEFIPSSVKENFEKGNFKLIMINSIYKSATSEENAQIERIQQIVKKYSKRSYVTGEGVLTKDLVEMADTDLKRVDFISILAIFMIILITFKSISIPLILVLAIELAIFINLAIPYYTNVTVPFIASIVLGTIQLGSAINYAILMTTRFREEIQKGHDRFEAIKIAVKTSSRSVVTSALAFAFSTLAVALIAKIDMIRSLCEMLSRGAVISMIVILFVLPSLLLLFEGAIAKTTFGWRSKEASVKPSEEYETL”, which protein production is on record?
Answer: Its protein production is “failed”.

Question: With “MTISRNYDQEIKDTAGHKYAYNFDFDVMHPFMVRAFTPFFRPGNLLELGSFKGDFTSRLQEHFNDITCVEASEEAISHAQGRLKDGITYIHSRFEDAQLPRRYDNIVLTHVLEHIDDPVALLKRINDDWLAEGGRLFLVCPNANAVSRQIAVKMGIISHNSAVTEAEFAHGHRCTYALDTLERDASRAGLQVTYRSGIFFKALANFQWDQILQTDILSKEYLDGCYQLGQQYPDLCASIFLLCEKGINQ” as the sequence, how does the protein production read?
Answer: Its protein production is “not failed”.

Question: With “MTITDKNRLTGEADPRRTSLYGPPSMDALTERALHLARAGRALLGIVGEPGAGKSTFAEQLRARLEKERPGLAVTVSMDGFHLAQKVIEARGQAADKGTIDTFDADGFVALLRRTRAETGDTENTESTVWWPEFDRDLEDPVAGSIEVAPHHRLVIVDGNFLLSAQEPWRQVKGLLDETWFLDALPEPRRERLTRRYISYGFTPEAARAKTLGVDEDTSALIRSTVSRADLVIGEARESGGVSDCLEHHHHHH” as the sequence, how does the protein production read?
Answer: Its protein production is “failed”.

Question: Which protein production does the source give for “MTKFNYKSSLYLFNTIFLISLTTLGTMVMIPFAVESKIPKKTSNSISPFCKVLSEKFSPFGAAPDLSVALGKAIAEGGNLNQPCDIFGEKWLPLNFLLSTDEELSQRLIQTGVNVNAKDGKGDTPLHYLGKSEKNARLLLSRGAKVNVGNQNGNTPLHNLFGQKTAYVIKLLIDRGAKVNARNQEQMTPLHFAANSGKADITELLISRGGDVNARSTQNWTPLHYGASNLEVAKKLIQAGADLTIQNREGAVIHSSSLEPAVLKLLLDRGVNVNLRNRQGQTPLHIHRFQPALVKLLLARKAQVNLRDAQGKTPLYDVNLEVARQLVAANADLNVQDNLGRTPLHQAVLEEQSFFGSELVTLFLSKNARVDLKDKQGKTALDLARQLNKTQIINLLERHMATKNSPGSGTSTTKATEQLQQFLKSKNWSAADQETRRLLSPQKDLFGLNAATIPLDLIQEIDRAWLVASDGRFGLSVQAKIWQKVIASHPNNSETAANTFRDRVGWKLKVARTENDFISSDWLNESELNYSLQAPVGHLPWAGVSDASVLSLAVPPPGEHCGSCTIDAMFLRDGRFYKYLPQLFARVKMALNMNVSRPKSLAIAKK” here?
Answer: Its protein production is “failed”.

Question: Which protein production does the source give for “MTKIIKYTNKDNETLYKFRFYAGLDEITGKQRYIRRQGFKSEKDAKTELLKIEYLVSTNQYFKSVKSGKFGDVLDEWLALHKETVKASTWRYIERRVKNHVRPYFKDMYVDKITLRHCQDFTNKAFAAAPVGFTQIISIVKNTLDYALRLGMIESNPMLYVIKPKKQTTISDKHGNYYNKDELKKFLAAAKDTDLKKYTLFRLLAYSGLRVGECLALTWHDLDYKNNTIAINKTYAKTNNGIKIQTPKTKASIRKVSLDVETIQVLKEWQLNQRKQLLKVGINAMNKQQLIFSNNKNSFIANETVRLAIHQIAKKTGIHPITTHGFRHTHATLLFASGMDIKQVQARLGHSNVQTTLNIYTHAIQDKQDKIGDEFAKYINF” here?
Answer: Its protein production is “failed”.

Question: With “MTKKKVYIVSHSHWDREWYLPYEEHHMRLIELVDNVLDLIENDPEFNSFHLDGQTIILDDYLQVRPEKKEAVKKAVQAGKLKIGPFYILQDDFLISSESNVRNMLIGHLESQKWGAPVQLGYFPDTFGNMGQTPQMMQLANLPAAAFGRGVKPIGFDNQVLESDYSSQYSEMWWEGPDQTKIFGLLFANWYSNGNEIPSEKEAAIAFWKQKLADVERYASTNHLLMMNGVDHQPVQRDITKAIALANELFPEYEFIHSNFDDYLKAVQEELPEDLGTVTGELTSQETDGWYTLANTSSARVYLKQWNTKVQRQLENIAEPLAAMAYEVTGDYPHDQFDYAWKTLLQNHPHDSICGCSVDEVHRGMMTRFENANDVGHFLADEATRQLTEAIDTSVFPEKAHPFVLFNTSGYQKTEVVTVEVEIERLPFYTGKPEDLYHELKQKATPDYQVIDPTGKAVASRIVKEDVRFGYDLPKDAFRQPYMAKYLTVELSVKEMAPFSWDSFALIQGETKAFEGSLLAQPATNEMENEFIQVKIENNGSLTIADKKTGETFSKLLTFEDTGDIGNEYIFFKPTEDQGITTENVTAEITNKENSPVKASYQIKQTVMLPVAADERLEEEQKAVREFRERLAQRSTTLRPFEITTMVTMIKESNQLFFETTINNQIKDHRLRVLFPTGMVTETHEADSIYEVVTRPNQVSDTWENPTNPQHQQAFVNVHDQNKGVTIFNEGLNEYEVLADGTIAVTLIRCVGELGDWGYFATPEAQCQGEYTFKYGLSLHGKPEERFATYQQAYSAQIPFTAATTARHEGKLAPNHVYLTTAEGPIGWTAVKRQEQTNHLVVRGFNLTAQNIPCELHKETQPATCLTNVLEEPLTPAIEVDAPLRPFEIRTWRFEK” as the sequence, how does the protein production read?
Answer: Its protein production is “not failed”.

Question: Which protein production does the source give for “MTKLGYVMTKSSAKNFKIYINGSAKGFKNIIISGAKAWNPSPYLNTVSIGNDVRPNYTVSSSGTNKGSVLAVCNTTYYKSNKLISKNEITLYKGFRSLSTNHKIETIVHEFGHGFGLGHVKTKNAIMLDKGFINKTKPQTDDFNGIKALYKLEHHHHHH” here?
Answer: The protein production was “not failed”.

Question: For “MTKNEEGRVRRFVIRYVGSGRVPPCWIAGIFALCWGGVALAGGVALQSVDFTALPSENFQLRLGFDGPVPEPRSFTTEHPARIALDLAGVRSDLDKKPIPVHQAGVETVQAIAAGGRTRVILNLATAVPYTTRVAGRFLYVTLQSGKAGSRADDSASAPVVVTERPVVGGPQVESIDFRRGEKGEGRLLVALSDPNSLINLREEGRSVVADLPGTSLPGRLARRLEVIDFATPVKWVEAMPVGRGARLLITPVSDEYDYSSYQSGKLLTVELRPLSRAEKEEAKKRRLVFAGERLSLNFQDIPVRNVLQILADFTNLNIVASDSVQGSVTLRLNEVPWDEALDLVLKAKGLGKRQEANSNVIRVAPLDEINRSERDELEALKVVEDLEPLRTEIIQINYTKADDIKKVIMGTTEKAEKAITRPEALTGGPGVTSTEAYDVTQSILSSRGNVTTDPRTNQLIVQDTPRNLERIRDLVRQLDKPVRQVMIESRVVIANVDFLRELGAKLDFRPKNLTAAERLNPTGSMADLGVDLAKLTTLSPYGTAQYVVSMGDYLLDLELSAAQKEGRGEIVANPRVLTADQSKAKIMQGVELPYQITQQGTGGGIPVQNVAFKPAVLELDVTPHITPDDHILMDLMVKKDDKGELAPNGNFAIEKREIDTVAQVANGETVVLGGVYEGTRRNNTDKVPFFGDLPGIGFMFRRNAVEDRKKELLIFITPKIVKQTSMTP”, which protein production is on record?
Answer: Its protein production is “failed”.

Question: With “MTKNTRFSPEVRQRAVRMVLESQGEYDSQWATICSIAPKIGCTPETLRVWVRQHERDTGGGDGGLTTAERQRLKEPERENRELRRSNDILRQASAYFAKAEFDRLWKK” as the sequence, how does the protein production read?
Answer: The protein production was “failed”.

Question: Which protein production does the source give for “MTKQSKTQIRICFVGDSFVNGTGDPECLGWTGRVCVNANKKGYDVTYYNLGIRRDTSSDIAKRWLQEVSLRLHKEYNSLVVFSFGLNDTTLENGKPRVSIAETIKNTREILTQAKKLYPVLMISPAPYIEQQDPGRRRRTIDLSQQLALVCQDLDVPYLDVFPLLEKPSVWLHEAKANDGVHPQAGGYTEFARIVENWDAWLNWFR” here?
Answer: The protein production was “not failed”.

Question: Which protein production does the source give for “MTKRHVSLPADAKDVRRAFVSGVDERLSAAETPDELATAVTGTLADLRGERDAYEAWRDGDDVRPAAAARLATLDPRNASLESEYYAEKDEAAFARSKPLQWLWRQFDTTPLADNVDVALPFRRMLAGHLFAGVGEDVRLFKGITMTYGHNIELGDNAVVHDGVHLDDRGELVVGARASVSNGAHLYTHDHDVVDQTDVTNYRTEIGADARVTQGALVRAGVRVGENALVGSRSVVQGDVPAHHIAVGSPAESVRVKPGWEAVAAPLDAGLEHHHHHH” here?
Answer: Its protein production is “not failed”.

Question: Which protein production does the source give for “MTKSPARLISFISIAIAINLVGANLALFLRLPIYLDTIGTLLIAVILGPWYAASTAFLSALINWMTTDIFSLYYSPVAIVVAIITGILIKRNCKPSSLLWKSLIISLPGTIIASVITVILFKGITSSGSSIIAQFLHGIGLDMTSSLILVQVGTDYMDRLISLILVFSTITLLKKHSPNLINQRF” here?
Answer: The protein production was “failed”.

Question: Which protein production does the source give for “MTKTLRTPEHVYLCQRLRQARLDAGLTQADLAERLDKPQSFVAKVETRERRLDVIEFAKWMAACEGLDVVSEIVATIAEGRAQA” here?
Answer: Its protein production is “not failed”.

Question: For “MTKVIVVNGPNLGRLGVRQPDVYGRQDLDTLRKLCAEWGKDLGLEVEVRQTDDEAEMVRWMHQAADEKTPVVMNPAAFTHYSYALADAAHMVIDENLPLMEVHISNPSARDEFRKRSVISPVATGTITGMGFYGYKLALDAVAHLLSE”, which protein production is on record?
Answer: The protein production was “not failed”.

Question: With “MTKVLFVKANNRPAEQAVSVKLYEAFLASYKEAHPNDTVVELDLYKEELPYVGVDMINGTFKAGKGFDLTEEEAKAVAVADKYLNQFLEADKVVFGFPLWNLTIPAVLHTYIDYLNRAGKTFKYTPEGPVGLIGDKKIALLNARGGVYSEGPAAEVEMAVKYVASMMGFFGATNMETVVIEGHNQFPDKAEEIITAGLEEAAKVANKF” as the sequence, how does the protein production read?
Answer: Its protein production is “not failed”.

Question: With “MTLAACMQEADQLQHWREKCWRPFFRVDEEILNIHNEQLGINEDHLHGAQSIHVASNIRARKVFEFPYLQTSMKPEDAGVDAILSKFNIMIYSYKDAAYPFRMVPPIVYAHLAILRVNAGDLTSSDTWRLYM” as the sequence, how does the protein production read?
Answer: Its protein production is “failed”.

Question: For “MTLDANSAPVRDMASAHFSPGEDCRRKIRDLCRQARISVDICVFTISDDQLSDEIRACHQRGVAVRVISDSEKQFDVGSDIAALREAGVPVRIDDTPFHMHHKFAVFDGRTLLNGSFNWTRSATTGNEENLLVIDHPQLVASYLKEFNELWSRYAPRLEHHHHHH”, which protein production is on record?
Answer: The protein production was “failed”.

Question: Which protein production does the source give for “MTLEKKEYGAPGFWPGSMIGRVHAFETPAPLTRAQLDRLRDEFFETRTEGHLEIWTAIRAASHAQEAGDDELAYAIITAVGILPAEVGPAGEGLGERIPFAEQPLDRLLGMICGCCFPAFTRYRTLERVYDQRGFLYETPKECIATPSNVLPDESTEASAR” here?
Answer: The protein production was “not failed”.
